Results published in US20220249633A1.

Biological target: HLA-A*24 (human)
Assay: UV-exchange ELISA, exchange yield grade

| Binder | peptide exchange yield [%] |
| --- | --- |
| RYLEAALRL [… (SEQ ID NO: 168)] | 50 to 75 |
| EYQARIPEF [… (SEQ ID NO: 122)] | 50 to 75 |
| RYPALFPVL [… (SEQ ID NO: 132)] | > 75 |
| IYNETVRDLL [… (SEQ ID NO: 106)] | 50 to 75 |
| KYLNSVQYI [… (SEQ ID NO: 118)] | 50 to 75 |
| LYSPVPFTL [… (SEQ ID NO: 175)] | 50 to 75 |
| YYTQYSQTI [… (SEQ ID NO: 96)] | > 75 |
| RYGLPAAWSTF [… (SEQ ID NO: 121)] | 50 to 75 |
| VYEAMVPLF [… (SEQ ID NO: 135)] | > 75 |
| LFITGGQFF [… (SEQ ID NO: 109)] | > 75 |
| KYIFQLNEI [… (SEQ ID NO: 143)] | 50 to 75 |
| TYKDYVDLF [… (SEQ ID NO: 124)] | < 20 |
| VYRVYVTTF [… (SEQ ID NO: 119)] | 50 to 75 |
| IYSFHTLSF [… (SEQ ID NO: 113)] | 50 to 75 |
| KYPDIVQQF [… (SEQ ID NO: 161)] | 50 to 75 |
| VYEKNGYIYF [… (SEQ ID NO: 174)] | 50 to 75 |
| KYFPYLVVI [… (SEQ ID NO: 107)] | 50 to 75 |
| VFSRDFGLLVF [… (SEQ ID NO: 125)] | 50 to 75 |
| VYGVPTPHF [… (SEQ ID NO: 154)] | > 75 |
| VYIESRIGTSTSF [… (SEQ ID NO: 100)] | 50 to 75 |
| QYLDGTWSL [… (SEQ ID NO: 114)] | > 75 |

| Binder | peptide exchange yield [%] |
| --- | --- |
| VFPRLHNVLF [… (SEQ ID NO: 98)] | 50 to 75 |
| FYTLPFHLI [… (SEQ ID NO: 166)] | > 75 |
| NYIPVKNGKQF [… (SEQ ID NO: 103)] | 50 to 75 |
| QYLEKYYNL [… (SEQ ID NO: 173)] | > 75 |
| QYPFHVPLL [… (SEQ ID NO: 170)] | > 75 |
| IFGIFPNQF [… (SEQ ID NO: 139)] | 50 to 75 |
| SYNGHLTIWF [… (SEQ ID NO: 141)] | 50 to 75 |
| IYPEWPVVFF [… (SEQ ID NO: 136)] | 50 to 75 |
| RYLNKSFVL [… (SEQ ID NO: 115)] | 50 to 75 |
| RYLINSYDF [… (SEQ ID NO: 140)] | > 75 |
| KFFDDLGDELLF [… (SEQ ID NO: 152)] | 20 to 49 |
| RYLTISNLQF [… (SEQ ID NO: 163)] | > 75 |
| VFIFKGNEF [… (SEQ ID NO: 172)] | > 75 |
| NYYERIHAL [… (SEQ ID NO: 146)] | 50 to 75 |
| HYVPATKVF [… (SEQ ID NO: 164)] | 50 to 75 |
| YYMELTKLLL [… (SEQ ID NO: 156)] | > 75 |
| NYITGKGDVF [… (SEQ ID NO: 169)] | 50 to 75 |
| KYTSYILAF [… (SEQ ID NO: 162)] | 20 to 49 |
| VYVQILQKL [… (SEQ ID NO: 111)] | 50 to 75 |
| IYLSDLTYI [… (SEQ ID NO: 117)] | 50 to 75 |
| FYINGQYQF [… (SEQ ID NO: 176)] | 50 to 75 |

The next lines start with the values.

| peptide exchange yield [%] | Binder |
| --- | --- |
| 50 to 75 | EYFTPLLSGQF [… (SEQ ID NO: 165)] |
| 50 to 75 | KYLEDMKTYF [… (SEQ ID NO: 133)] |
| > 75 | TYTFLKETF [… (SEQ ID NO: 97)] |
| 50 to 75 | VYFKAGLDVF [… (SEQ ID NO: 177)] |
| 50 to 75 | IYEETRGVL [… (SEQ ID NO: 159)] |
| 50 to 75 | RYGFYYVEF [… (SEQ ID NO: 167)] |
| > 75 | VYVPFGGKSMITF [… (SEQ ID NO: 153)] |
| 50 to 75 | SYPKIIEEF [… (SEQ ID NO: 110)] |
| 20 to 49 | VYNAVSTSF [… (SEQ ID NO: 138)] |
| > 75 | SYLTWHQQI [… (SEQ ID NO: 104)] |
| > 75 | AYVIAVHLF [… (SEQ ID NO: 116)] |
| > 75 | KYIDYLMTW [… (SEQ ID NO: 129)] |
| > 75 | EYLHNCSYF [… (SEQ ID NO: 137)] |
| > 75 | QYILAVPVL [… (SEQ ID NO: 99)] |
| > 75 | SYGTVSQI [SYGTVSQI (SEQ ID NO: 149)] |
| 50 to 75 | LYLAFPLAF [… (SEQ ID NO: 147)] |
| 50 to 75 | AYIPTPIYF [… (SEQ ID NO: 134)] |

| peptide exchange yield [%] | Binder |
| --- | --- |
| > 75 | VYPFDWQYI [… (SEQ ID NO: 128)] |
| 20 to 49 | VYTPVLEHL [… (SEQ ID NO: 123)] |
| > 75 | VFASLPGFLF [… (SEQ ID NO: 144)] |
| > 75 | GYIEHFSLW [… (SEQ ID NO: 120)] |
| 50 to 75 | RYGDGGSSF [… (SEQ ID NO: 160)] |
| 50 to 75 | IYNETITDLL [… (SEQ ID NO: 105)] |
| 50 to 75 | EYLDRIGQLFF [… (SEQ ID NO: 131)] |
| > 75 | IYKWITDNF [… (SEQ ID NO: 155)] |
| 50 to 75 | VYPFENFEF [… (SEQ ID NO: 102)] |
| 50 to 75 | VYALKVRTI [… (SEQ ID NO: 145)] |
| 50 to 75 | IYNFVESKL [… (SEQ ID NO: 112)] |
| 50 to 75 | QYFTGNPLF [… (SEQ ID NO: 127)] |
| 50 to 75 | PYLVVIHTL [… (SEQ ID NO: 108)] |
| > 75 | SYGTVSQIF [… (SEQ ID NO: 148)] |
| 50 to 75 | NYEDHFPLL [… (SEQ ID NO: 171)] |
| 50 to 75 | DYIPASGFALF [… (SEQ ID NO: 157)] |
